# Source: the DeepSol protein solubility set
# Test: soluble on expression in E. coli; label from the status in PepcDB or PDB records
row,Sequence,soluble on expression in E. coli
1,MYVENSYLSKQLCFLFYVSSKEIIKKYTNYLKEYDLTYTGYIVLMAIENDEKLNIKKLGERVFLDSGTLTPLLKKLEKKDYVVRTREEKDERNLQISLTEQGKAIKSPLAEISVKVFNEFNISEREASDIINNLRNFVSKNFDYSDKK,not soluble
2,MYVLIGGAGLIGQQLARQVLDQGHTVAVIDQDPQVCKMVRDRLGAMAFEGSAVNTDILLEAGICRADAVAAVLRQDALNLALVTLACHYGVSRIISRISQQDFIEPMRLAGAHHIISTVDLVVSTMVNAIECPQVESMLHFEQGQIEVFKLTLDSQSPVIGRSVAAIAQDRNFPSSSLIIGYQSHPQADLVIPSGNTVLEANATVLLATKPGLVQSLVNFLMPSLFSPLEHHHHHH,not soluble
3,MYVLIGGAGLVGLTLAQKLVELGHTVAIIDVDHTACRYAREQVGAMAFEGSAVSTEVLLEAGIRKADALAAVLRNDALNLAMVMLAKHYGVSHILSRMRHADFAQPLRLAGANHVISTVELSVSTMVNAIEYPQVESMMHFEQGQIEVLKISIPNSCYVANRSLAEIAQDSRFPSGSLIIGYQPHPHEDLVIPNGSTVLESGSTILIATKPGSLHQVIDFIEGCKLEHHHHHH,not soluble
4,MYVYDEYDQRIVEDRVKQFRDQTRRYLAGELTGEEFRPLRLQNGLYIQRYAPMLRIAVPYGLLSSRQLRKLAQIARDYDKGYAHISTRQNVQFNWPELEDVPEILAELATVQMHAIQTSGNCIRNTTTDQFAGVARDELVDPRPWCEIIRQWSTFHPEFAHLPRKFKIAVNGAVSDRAAIEVHDIGLEAVKNEAGELGFRVSVGGGLGRTPIVGSFINEFLPWQHLLGYLDAILRVYNRYGRRDNKYKARIKILVKALTPEVFAERVEAEWANLKDGPSTLTEAEVQRVAAHFVDPAYKALDDLDESLARLDAEHPGFARWRARNTFAHKKPGYVAVTLSLKPTGTAPGDVTDKQLEAIADLADRYSFGEVRNSHNQNIILADVEQGELFALWGELRELGFATPNVGLLTDIICCPGGDFCSLANAKSIPIAEAIQRRFDNLDYLFDIGDIDLNISGCMNACGHHHVGHIGILGVDKKGAEFYQVSLGGSSARDASLGQILGPSFAQEQMADVIDKIIQVYVERRTEEEPFIDTFRRIGIDPFKERVYAAN,not soluble
5,NAADGIFFPALEQNMMGAVLINENDEVMFFNPAAEKLWGYKREEVIGNNIDMLIPRDLRPAHPEYIRHNREGGKARVEGMSRELQLEKKDGSKIWTRFALSKVSAEGKVYYLALVRDAS,soluble
6,NEFELGTRGSSRVDLQEQRSVKTRVSLDDLFEQIKQGEMKELNLIVKADVQGSVEALVAALQKIDVEGVRVKIIHAAVGAITESDISLATASNAIVIGFNVRPDANAKRAAESEKVDIRLHRIIYNVIEEIEAAM,soluble
7,NEIVSGKLRIAASASFGAALLSQTLIEFRLQHPQVSVEVIFTEAPLDLIEAGFDIAFYFTDTPPEGYVGHQLRTLHCKPIAHRSYLADKPNVSTPEDLGDLEHILYKSRDLVLDKWTFTHKQTQQQCRIELESTLSFNLVQSMLDATLAGCGVAMLDEFALAKLESAQKEQLVSLLPDWQTDAILPLYLLYPKREHLPRRTRAFIDHFRNIYSVGE,not soluble
8,NGVWVIGEQREGKINPVTIELIGEGRKLADQLGKELAVVIAGYEVEKEVKELLHYSVDKVYYINDPLLKDFTTDGYAISIANLIERKKPEVVLVGATSIGRDIAPRIAGKVGTGLTADCTKLEIDSTDNKLLQTRPAFGGNLMATIVCPKNRPQMSTVRPGVMAKAVRNESETGILEVVTPELTEKMIRTRLVEILPQEKKSVN,soluble
9,NIQYEERVSVQADLGSQTLHVRGLIDSGNQLYDPLTKTPVMIIYIDKLEPIFGTAETMIIRNTDPLEAIEQLDDSFRFLDKMRLIPYRGVGQQNQFLLCVKPDHVTIMTKEEMISADKCLIGISTTKLSADGEFDAIIHPKMLSGKAVKH,not soluble
10,NKDLLWTTSLNIGHNKNKLTKLDGEQQEIISGVSIHRVGQPYYSIYAYEYAGVDPQTGKELYYINGEDGSRETTTNSAAANKTIIGSIEPKVQGGLTNYVSWKFIDFNLTLTYSLGGHAYDYATWLQSNGGTYHYLGNVPAYYKMEDTWQKTGDNAKLPQFAYGNANKASSRWLMSTDHLRVKNMTLGFTLPQSWSSKAGISKLRAYVSGNNLLTWKKKSLYVDPEVPVDGLCTFETPALRTVTFGLEIGF,not soluble
11,NLSELTPYILCSICKGYLIDATTITECLHTFCKSCIVRHFYYSNRCPKCNIVVHQTQPL,soluble
12,NLYFQSARFALTVVRHGETRFNKEKIIQGQGVDEPLSETGFKQAAAAGIFLNNVKFTHAFSSDLMRTKQTMHGILERSKFCKDMTVKYDSRLRERKYGVVEGKALSELRAMAKAAREECPVFTPPGGETLDQVKMRGIDFFEFLCQLILKEADQKEQFSQGSPSNCLETSLAEIFPLGKNHSSKVNSDSGIPGLAASVLVVSHGAYMRSLFDYFLTDLKCSLPATLSRSELMSVTPNTGMSLFIINFEEGREVKPTVQCICMNLQDHLNGLTETR,soluble
13,NNSQFFMGIPRLKFPADAPSRSTLKLEEAFHVFIPRDEWDERLAPGMWGVDLGACPGGWTYQLVKRSMFVHCVDNGMMADSLMETGQIKHHMVDGFKFEPDRKNVTWIVCDMVEKPARVAHLMGQWLLKGWAKEAIFNLKLPMKGRYDEVLQDLENLKMFLIENKVKFKLQAKHLYHDREEITIHIQCLSNISPH,not soluble
14,NPSTTKAPLADYLAHLPLAEEERERLGESASFSELHARLAGAEGAAADAGGDPALASVRARLQLGTPELDDAEMFGVDAQGRTFLKISPPIRRTKVIPEPWRTNILVRGWRRLTGRSNPPKPKRALPRARWQ,not soluble
15,NTIQQLMMILNSASDQPSENLISYFNNCTVNPKESILKRVKDIGYIFKEKFAKAVGAGCVAIGSQRYKLGVRLYYRVMESMLKSEEERLSIQNFSKLLNDNIFHMSLLACALEVVMATYSRSTSQNLDSGTDLSFPWILNVLNLKAFDFYKVIESFIKAEGNLTREMIKHLERCEHRIMESLAWLSDSPLFDLIKQSKTREGKSTSLSLFYKKVYRLAYLRLNTLCERLLSEHPELEHIIWTLFQHTLQNEYELMRDRHLDQIMMCSMYGICKVKNIDLKFKIIVTAYKDLPHAVQETFKRVLIKEEEYDSIIVFYNSVFMQRLKTNILQYASTRPPTLSPIPHI,soluble
16,NVDKAIKFGQIQNKAVTLGQGGFFNDDFSDGQAGVHYPDLDNAEPMPESEKLQYEKRLVGFYLSHHPLDRFRRDWEAFASLTLDKRDVTPSKL,not soluble
17,NVKQQFFPPSNTPMFYVDMWMPEGTDIRQTIKQAEKVESYIRQQDDIDFVSVSIGQGLQRFALTYQPEKSYEAYAQFQVRTTDRDNMFKLLHKLDDNLAKTFDEPTFQFKLMEFGPSPASKIEARITGPDPKVLRELAVQVEDILHTDPGARNIRHDWRERTKELVPVFNESKARRLGISKEDLSSTLQMAFGGSTFGVLRDGTHTLPIMMRLPEAERVDFESLQNVKIWSPSLQTYIPVDQIIDGVELDWSEPLIQRRDRKRTLTVLADHDVLSDDTAASLFARVQPKVMALHIPEGYEITWGGEYESSKDAQE,not soluble
18,NWLTADGAAGPSGEGGFAAEKDRYHLYVSLACPWAHRTLIMRKLKGLEPFLPVSVVNPLMLENGWTFDDSFPEATGDTLYQHDFLYQLYLHADPHYTGRVTVPVLWDKKQQTIVSNESAEIIRMFNTAFDGLGARAGDYYPPALREQIDELNGWIYDNVNN,not soluble
19,PCRECGRPMMIRTASTGVFLGCSGYSLPPKERCKATVNLIPGDEIAADDEGESESRVLRGKHRCPICSTAMDAYLLDEKHKLHICGNNPDCPGYEIEEGQYRIKGYEGPSLECDKCGSEMQLKTGRFGKFFGCTNPTCKNTRKLLK,not soluble
20,PDSAVVRIHSSSGTTGKPVIIPYTRNDVDTWAELMMRCYMLAGLTNQDRIQITPGYGLWTAGIGFQLGAERLGAMAIPTGPGNTEKQLEMLVDLKTTALASTSSYALLLAEEIEKRGLKDRIHLRTGVIGSERWSEKMRSRIENELGIETFDIYGLTEIYGPGIALDCSYHEGMHYW,not soluble
21,PEYQANVQILVNRKHSSAGADLTGQQADVQMITTYKELITKPVVLKPARQTLMAETDIRRSLESLKQTVSVTSTANSQVFSIGVRDKNAKASAMIANQIAATFKDQVQHIIKVNNVTIVAPAETPDQSVAPKK,not soluble
22,PFEGNATEVFTDGYSMLYSLMKEISKAKHHIHLQFYIFEDDPAGRLLRDLLIDKARQGVEVRLLYDDVGCWKVPHAFFDEMRGAGIEARSFLKVRFPLFTSKVNYRNHRKIVVIDGRVAYTGGMNIALRYMKGFPWGIWRDTHIKIEGKAVYGLQTAFLTDWYVVDRTLITSSRYFPEVGIFGKALIQIVTSDP,not soluble
23,PFSFCRRIYLPTDLRSYPSVRNVLIHEQEHTRATHFVDLLIAEVACMLFWFNPFAWALKRDMQRNLEFLADRAVLLRGVSRREYQYELL,not soluble
24,PGAKVRVFHLLPFRREDLVPEEVLASVRDYLRTTKEQGLTMRVAMHGGNTEGDFSVSTAQALKGLFANEGIPLEFDETCANRTSETLLGAVILDDNSTHFIKHLVAQ,not soluble
25,PGRPTMMISTTAMNTALLQWHPPKELPGELLGYRLQYCRADEARPNTIDFGKDDQHFTVTGLHKGTTYIFRLAAKNRAGLGEEFEKEIRTPEDL,soluble
26,PGSIWAKAIEHANEERKKPGADGRGDAFCYFVGSRAAGKSTLLNRFLYPTRAEVPKPSEGIEYTYARKPAAFDHEKKDLAHIWEVGGSQEFAEEIVNSDQLFLTAKQVTTAVVVIVVDLSDPAGVLPTLLYWVEQVKKKLGSTYEKFEKKGLQLPEQLRQRAKSKLYSANEDKDTVYHSGISLVIAATKYDAFKNQDPEVKKVMSRVLRYIAHAHGAFLCYLSGLHGASEGSGAEDAALLDNFTRLMNHLIFTGLEKKPVLKMQPQIDHTGPIMVPAGFDTFKSVGRPRSQGEGTVAGGLAEWRELFEKMFPGVREKEAKMSAKGAKFVIPEQYKEEEVDAVRQRKVTDLENFRKEQAAAVEAAKKKALMAKAQQAEAAAKK,not soluble
27,PIDWNPQRIAVSGVSGVGKTTLCKQIAALSGFPRVELDSLYHGENWVPRETFVAEVQDFIKGPQWVMELQYRQVRPLIVERADTVLWLDYSTPRQMFRLIKRTIPRSLFKTKL,not soluble
28,PKTLYDKIWDAHLAHEAEDGTCLLYIDRHLVHEVTSPQAFEGLRMAGRKVRAPEKTIAVPDHNVPTTEGREDPAQMTEESRIQVQALDKNAREFGVHYYPVDDIRQGIVHIVGPEQGWTLPGMTVVCGDSHTATHGAFGALAHGIGTSEVEHVLATQTLIQKKSKN,not soluble
29,PLGSMPFHAEPLKPSDEIDMDLGHSVAAQKFKEIREVLEGNRYWARKVTSEEPEFMAEQVKGQAPNFLWIGCADSRVPEVTIMARKPGDVFVQRNVANQFKPEDDSSQALLNYAIMNVGVTHVMVVGHTGCGGCIAAFDQPLPTEENPGGTPLVRYLEPIIRLKHSLPEGSDVNDLIKENVKMAVKNVVNSPTIQGAWEQARKGEFREVFVHGWLYDLSTGNIVDLNVTQGPHPFVDDRVPRA,soluble
30,PLRDVLDSNEFRDSKATLPIALGKDISGKPVIVDLAKMPHLLVAGSTGSGKSVGVNTMILSLLYRVQPEDVKFIMIDPKVVELSVYNDIPHLLTPVVTDMKKAANALRWCVDEMERRYQLLSALRVRNIEGFNEKIDEYEAMGMPVPNPIWRLGDTMDAMPPALKKLSYIVVIVDEFADLMMVAGKQIEELIARLAQKARAIGIHLILATQRPSV,not soluble
